The source of these data is patent publication US20140348805A1.

The test has as its target HLA-A2 (HLA-A*0201) presenting tyrosinase369-377 peptide … on cells (human). Kind of test: cell-based or functional assay.

The substance “TCR of T cell clone T58 (TCR-T58), human constant regions (from UniProt P01848 1-140)” gave an IFN-γ secretion after co-culture with Mel-93.04A12 (HLA-A2+tyrosinase+) of 1230 pg/mL; a peptide concentration needed for 50% relative lysis (half-maximum lysis), 51Cr-release assay, peptide-pulsed T2 cells of 600 pM; a specific lysis of melanoma cells, 51Cr-release assay of 76%.

Consider “TCR-T58 with murine constant regions (TCRbeta-P2A-TCRalpha, codon-optimized) (from UniProt P01849 1-136)”, for which the amount of peptide presented by T2 cells to cause release of 2000 pg/ml interferon-gamma, fold lower than TCR-D115 stood at 15000 fold; the maximum level of interferon-gamma in 24 hours (T2 cells pulsed with YMD peptide) stood at 5000 pg/mL; the peptide amount at first detection of cytokine secretion, fold less than TCR-D115 (PBMC pulsed with YMD peptide) worked out at 1000 fold; the peptide concentration for 50% of maximal interferon-gamma release, fold lower than TCR-D115 (T2 cells pulsed with YMD peptide) turned out to be 100 fold.
